Laboratory results: patent publication US12139520B2 (priority 2020, dated 2024)
Bridge positions count the residues as written; N and C are the ends. Square brackets hold non-standard residues; d marks the D form. Ends that are not written are not given here. Hyp = O=C(O)[C@@H]1C[C@@H](O)CN1

T1: hAMY3R (human, UniProt P30988)
T1 sequence 1: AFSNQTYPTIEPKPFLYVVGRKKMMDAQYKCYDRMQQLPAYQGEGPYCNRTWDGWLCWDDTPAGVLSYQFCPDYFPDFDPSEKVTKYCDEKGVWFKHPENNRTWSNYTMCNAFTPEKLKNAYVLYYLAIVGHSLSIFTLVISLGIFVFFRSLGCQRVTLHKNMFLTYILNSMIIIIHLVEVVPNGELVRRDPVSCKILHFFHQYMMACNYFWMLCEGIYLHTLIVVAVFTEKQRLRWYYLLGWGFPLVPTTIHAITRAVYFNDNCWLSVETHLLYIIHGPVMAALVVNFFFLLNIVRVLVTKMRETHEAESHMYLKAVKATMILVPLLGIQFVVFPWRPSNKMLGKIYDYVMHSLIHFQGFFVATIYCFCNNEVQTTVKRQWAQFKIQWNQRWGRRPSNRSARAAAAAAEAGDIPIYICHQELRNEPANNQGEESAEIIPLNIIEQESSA
T1 sequence 2: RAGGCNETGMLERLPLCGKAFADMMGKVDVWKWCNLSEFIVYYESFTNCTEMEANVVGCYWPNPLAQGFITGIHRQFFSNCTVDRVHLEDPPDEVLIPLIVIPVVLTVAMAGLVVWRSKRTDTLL


Legend:
hAM1R = hAM1R (human, UniProt Q16602); experiment: cell-based or functional assay
hAMY3R = target: T1, hAMY3R; experiment: cell-based or functional assay

| Binder | hAM1R EC50 (cAMP) (hAM1R) [nM] | hAMY3R EC50 (cAMP) (hAMY3R) [nM] |
| --- | --- | --- |
| GCRTGTCTVQRLAHQIYQFTDKDKDNVAPRSKVGPQG[Hyp]-NH2 (disulfide 2-7 (inferred); ends not checked) [SEQ ID NO: 187] | 2980 | 0.093 |
| GCRMGTCTVQRLAHQIYQFTDKFKDNVAPRSKISPQT[Hyp]-NH2 (disulfide 2-7 (inferred); ends not checked) [SEQ ID NO: 173] | > 5000 | 0.069 |
| GCRTGTCTVQRLAHQIYQFTDKDKDNVAPRTKISPNG[Hyp]-NH2 (disulfide 2-7 (inferred); ends not checked) [SEQ ID NO: 197] | 2980 | 0.12 |
| KCRMGTCTVQRLAHQIYQFTDKDKDNVAPRSKISPQT[Hyp]-NH2 (disulfide 2-7 (inferred); ends not checked) [SEQ ID NO: 194] | 3530 | 0.112 |
| GCRFGTCTVQRLAHQIYQFTDKDKDNVAPRSKVSPQG[Hyp]-NH2 (disulfide 2-7 (inferred); ends not checked) [SEQ ID NO: 167] | 2980 | 0.056 |
| GCRFGTCTVQRLAHQIYQFTDKDKDNVAPRSKISPQT[Hyp]-NH2 (disulfide 2-7 (inferred); ends not checked) [SEQ ID NO: 168] | > 5000 | 0.062 |
| GCRTGTCTVQRLAHQIYQFTDKFKDNVAPRSKISPQW[Hyp]-NH2 (disulfide 2-7 (inferred); ends not checked) [SEQ ID NO: 185] | > 5000 | 0.09 |
| GCRTGTCTVQRLAHQIYQFTDKDKDNVAPRSNVSPQGY [SEQ ID NO: 183] | 2980 | 0.088 |
| GCRTGTCTVQRLAHQIYQFTDKDKDNVAPRTKISPNGY [SEQ ID NO: 190] | 2980 | 0.097 |
| GCRFGTCTVQRLAHQIYQFTDKDKDNVAPRSNISPQGY [SEQ ID NO: 182] | 100 | 0.085 |
| KCNTATCTVQRLAHQIYQFTDKDKDNVAPRTKVGSNG[Hyp]-NH2 (disulfide 2-7 (inferred); ends not checked) [SEQ ID NO: 20] | > 5000 | 0.008 |
| GCRTGTCTVQRLAHQIAQFTDKFKDNVAPRSKISPQT[Hyp]-NH2 (disulfide 2-7 (inferred); ends not checked) [SEQ ID NO: 196] | > 5000 | 0.114 |
| GCRFGTCTVQRLAHQIYQFTDKDKDNVAPRSKVSPNG[Hyp]-NH2 (disulfide 2-7 (inferred); ends not checked) [SEQ ID NO: 175] | 2980 | 0.074 |
| GCRTGTCTVQRLAHQIYQFTDKFKDNVAPRSKISPQTW [SEQ ID NO: 184] | 4500 | 0.09 |
| GCRIGTCTVQRLAHQIYQFTNKDKDNVAPRSKISPQT[Hyp]-NH2 (disulfide 2-7 (inferred); ends not checked) [SEQ ID NO: 198] | 3960 | 0.122 |
| GCRTGTCTVQRLAHQIYQFTDKDKDNVAPRTNISPNG[Hyp]-NH2 (disulfide 2-7 (inferred); ends not checked) [SEQ ID NO: 170] | 2980 | 0.064 |
| KCNTATCATQRLANFLVHSSNNFGAILPSTKIGSNTY [SEQ ID NO: 180] | > 5000 | 0.082 |
| KCNTATCATQRLANFLVHSSNNFGAILPRTKVGSNGY [SEQ ID NO: 19] | > 5000 | 0.008 |
| GCRTGTCTVQRLAHQIYQFTDKDKDNVAPRSKIGPQG[Hyp]-NH2 (disulfide 2-7 (inferred); ends not checked) [SEQ ID NO: 179] | 2980 | 0.082 |

More lines, now with the values ahead:

| hAM1R EC50 (cAMP) (hAM1R) [nM] | hAMY3R EC50 (cAMP) (hAMY3R) [nM] | Binder |
| --- | --- | --- |
| > 5000 | 0.091 | GCRTGTCTVQRLAHQIYQFTDKFKDNVAPRSKISPQY[Hyp]-NH2 (disulfide 2-7 (inferred); ends not checked) [SEQ ID NO: 186] |
| > 5000 | 0.098 | GCRMGTCTVQRLAHQIYQFTNKDKDNVAPRSKISPQT[Hyp]-NH2 (disulfide 2-7 (inferred); ends not checked) [SEQ ID NO: 192] |
| 817 | 0.008 | KCNFATCTVQRLAHQIYQFTDKDKDNVAPPTEVGSNGP [SEQ ID NO: 18] |
| 2980 | 0.066 | GCRTGTCTVQRLAHQIYQFTDKDKDNVAPRSNVSPNGY [SEQ ID NO: 172] |
| 2980 | 0.098 | GCRTGTCTVQRLAHQIYQFTDKDKDNVAPRSNIGPQGY [SEQ ID NO: 191] |
| 47.6 | 0.094 | GCRTGTCTVQRLAHQIYQFTDKDKDNVAPRTNISPNGY [SEQ ID NO: 188] |
| 2980 | 0.076 | GCRTGTCTVQRLAHQIYQFTDKDKDNVAPRTNVSPQGY [SEQ ID NO: 176] |
| 133 | 0.071 | GCRFGTCTVQRLAHQIYQFTDKDKDNVAPRSKVSPQGY [SEQ ID NO: 174] |
| 2980 | 0.077 | GCRTGTCTVQRLAHQIYQFTDKDKDNVAPRSNVGPNGY [SEQ ID NO: 177] |
| 2980 | 0.124 | GCRTGTCTVQRLAHQIYQFTDKDKDNVAPRTNISPQGY [SEQ ID NO: 199] |
| > 5000 | 0.112 | KCNTATCTVQRLAHQIYQTDKDKDNVAPPTNVGSNG[Hyp]-NH2 (disulfide 2-7 (inferred); ends not checked) [SEQ ID NO: 195] |
| 2980 | 0.063 | GCRFGTCTVQRLAHQIYQFTDKDKDNVAPRSKISPQG[Hyp]-NH2 (disulfide 2-7 (inferred); ends not checked) [SEQ ID NO: 169] |
| > 5000 | 0.064 | GCRWGTCTVQRLAHQIYQFTDKFKDNVAPRSKISPQT[Hyp]-NH2 (disulfide 2-7 (inferred); ends not checked) [SEQ ID NO: 171] |
| > 5000 | 0.099 | GCRTGTCTVQRLAHQIHQFTDKFKDNVAPRSKISPQT[Hyp]-NH2 (disulfide 2-7 (inferred); ends not checked) [SEQ ID NO: 193] |
| 2980 | 0.08 | GCRTGTCTVQRLAHQIYQFTDKDKDNVAPRTNVSPQG[Hyp]-NH2 (disulfide 2-7 (inferred); ends not checked) [SEQ ID NO: 178] |
| 2980 | 0.056 | GCRTGTCTVQRLAHQIYQFTDKDKDNVAPRSNVSPNG[Hyp]-NH2 (disulfide 2-7 (inferred); ends not checked) [SEQ ID NO: 166] |
| 2980 | 0.096 | GCRTGTCTVQRLAHQIYQFTDKDKDNVAPRTKISPQG[Hyp]-NH2 (disulfide 2-7 (inferred); ends not checked) [SEQ ID NO: 189] |
| > 5000 | 0.082 | KCNTATCTVQRLAHQIYFTDKDKDNVAPPTNVGSNG[Hyp]-NH2 (disulfide 2-7 (inferred); ends not checked) [SEQ ID NO: 181] |
